Where two headings read alike, the source gives them in different places.
Columns and labels:
[1] = target: T1, human ROR1 (hROR1) on cells (human, UniProt Q01973 30-937); assay: flow cytometry (FACS) on A549 cells (endogenous ROR1), antibody 0.01-100 nM, median fluorescence intensity
T1 construct: whole, on cells; the cell line is named under assay; also called HEK293T-hROR1; 293T-hROR1
Description: (§1) The binding properties were characterized by FACS. The recombinant antibodies obtained above were serially diluted to 9 different concentrations and incubated for 1 h, and then determined for the binding ability with HEK293T-hROR1, CHO-K1-cynoROR1 and A549 cell lines (endogenously expressing ROR1), respectively. The secondary antibody was then incubated for 1 h. The results are shown in FIG. 4-6 and Table 7-2 below.

[2] = target: T1, human ROR1 (hROR1) on cells; assay: cell-based or functional assay
[3] = target: T1, human ROR1 (hROR1) on cells; assay: FACS, HEK293T-hROR1 cells; cytometer saturated
Description: as §1

[4] = target: T2, hROR2ECD-his (human, UniProt Q01974 34-403); assay: ELISA, plate coated with hROR2 ECD-his
T2 construct: extracellular domain; bought, Acrobiosystems R02-H52E5; also called huROR2-his
Description: (§2) Screening by ELISA assay: 96-well plates (Corning 9018) were coated with 1 μg/mL hROR1 ECD-his/hROR2 ECD-his/mROR1 ECD-his proteins prepared with PBS in Example 1a above and incubated at 4° C. overnight. The liquid was then discarded, and the plates were washed 3 times with PBST, blocked with 5% milk for 2 h at room temperature, and washed 3 times with PBST. The taken supernatant was added at 100 μL/well, and the plates were incubated at room temperature for 1 h, followed by washing 3 times with PBST. 100 μL/well of secondary antibody (Sigma, Cat#: A8592) was added, the plates were incubated at room temperature for 1 h, and then washed. TMB was then added to the plates at 100 μL/well and incubated for 15 min at room temperature. Thereafter, the reaction was terminated and data were read.
(§3) a. Results of ELISA assay (the ELISA assay was performed according to the same procedures as in Example 2c, except that the added samples were recombinant antibodies and the secondary antibody was a-Fc (Genscript, Cat#: A01854))

[5] = target: T3, cynomolgus ROR1 (cynoROR1) on CHO-K1 cells (cynomolgus, UniProt A0A2K5WTX7 30-937); assay: flow cytometry (FACS) on CHO-K1-cynoROR1 cells, antibody 0.01-100 nM, median fluorescence intensity
T3 construct: whole, on cells; also called CHO-K1-cynoROR1; CHO-K1-cyROR1
Description: as §1

[6] = target: T1, human ROR1 (hROR1) on cells; assay: flow cytometry (FACS) on HEK293T-hROR1 cells, antibody 0.01-100 nM, median fluorescence intensity
Description: as §1

[7] = target: T1, human ROR1 (hROR1) on cells; assay: FACS, A549 cells
Description: as §1

[8] = target: T4, ROR1 (antigen of the KD determination and of the Octet dissociation measurement) (UniProt Q01973 30-403, limits assumed); assay: method not stated (conventional procedures)
[9] = target: T3, cynomolgus ROR1 (cynoROR1) on CHO-K1 …; assay: FACS, CHO-K1-cynoROR1 cells
Description: as §1

[10] = target: T5, Human ROR1-ECD-his (human, UniProt Q01973 30-406); assay: ELISA, plate coated with hROR1 ECD-his
T5 construct: extracellular domain; bought, Acrobiosystems RO1-H522y; also called hROR1-ECD-his; hROR1 ECD-his
Description: as §2, §3

[11] = target: T1, human ROR1 (hROR1) on cells; assay: cell-based or functional assay; remark: listed apart in the source
[12] = target: T3, cynomolgus ROR1 (cynoROR1) on CHO-K1 …; assay: flow cytometry (FACS) on CHO-K1-cynoROR1 cells, antibody 0.01-100 nM, median fluorescence intensity; remark: listed apart in the source
Description: as §1

[13] = target: T2, hROR2ECD-his; assay: ELISA, plate coated with hROR2 ECD-his; remark: listed apart in the source
Description: as §2, §3
The corresponding values in the table are the measured median fluorescence intensity (MFI).

[14] = target: T1, human ROR1 (hROR1) on cells; assay: FACS, Panc-1 cells
[15] = target: T4, ROR1 (antigen of the KD determination …); assay: Octet, antigen form not stated
[16] = target: T1, human ROR1 (hROR1) on cells; assay: FACS, HEK293T-hROR1 cells
Description: as §1

[17] = target: T1, human ROR1 (hROR1) on cells; assay: FACS, HEK293T-hROR1 cells; remark: listed apart in the source

T4 sequence (Q01973 30-403 limits assumed): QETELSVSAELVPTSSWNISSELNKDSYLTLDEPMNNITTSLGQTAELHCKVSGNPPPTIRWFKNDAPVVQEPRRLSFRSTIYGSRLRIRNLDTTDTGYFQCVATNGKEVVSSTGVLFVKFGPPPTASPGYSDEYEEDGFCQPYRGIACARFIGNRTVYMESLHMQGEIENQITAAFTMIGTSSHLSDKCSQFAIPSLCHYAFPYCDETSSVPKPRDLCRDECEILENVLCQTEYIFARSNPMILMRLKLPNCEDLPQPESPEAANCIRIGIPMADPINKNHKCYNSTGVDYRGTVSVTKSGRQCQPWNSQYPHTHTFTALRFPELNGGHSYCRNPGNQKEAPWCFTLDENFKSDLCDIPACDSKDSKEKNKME
T5 sequence (Q01973 30-406): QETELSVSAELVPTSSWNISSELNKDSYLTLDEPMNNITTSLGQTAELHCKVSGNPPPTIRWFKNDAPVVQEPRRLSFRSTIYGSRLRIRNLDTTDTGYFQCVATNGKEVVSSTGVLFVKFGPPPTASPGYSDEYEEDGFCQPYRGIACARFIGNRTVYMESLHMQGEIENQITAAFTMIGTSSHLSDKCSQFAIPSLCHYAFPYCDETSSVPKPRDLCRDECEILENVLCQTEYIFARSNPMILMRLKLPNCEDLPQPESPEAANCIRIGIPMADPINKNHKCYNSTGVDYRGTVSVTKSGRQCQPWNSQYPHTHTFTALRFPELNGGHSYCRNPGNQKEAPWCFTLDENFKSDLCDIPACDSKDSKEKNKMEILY
T1 sequence (Q01973 30-937): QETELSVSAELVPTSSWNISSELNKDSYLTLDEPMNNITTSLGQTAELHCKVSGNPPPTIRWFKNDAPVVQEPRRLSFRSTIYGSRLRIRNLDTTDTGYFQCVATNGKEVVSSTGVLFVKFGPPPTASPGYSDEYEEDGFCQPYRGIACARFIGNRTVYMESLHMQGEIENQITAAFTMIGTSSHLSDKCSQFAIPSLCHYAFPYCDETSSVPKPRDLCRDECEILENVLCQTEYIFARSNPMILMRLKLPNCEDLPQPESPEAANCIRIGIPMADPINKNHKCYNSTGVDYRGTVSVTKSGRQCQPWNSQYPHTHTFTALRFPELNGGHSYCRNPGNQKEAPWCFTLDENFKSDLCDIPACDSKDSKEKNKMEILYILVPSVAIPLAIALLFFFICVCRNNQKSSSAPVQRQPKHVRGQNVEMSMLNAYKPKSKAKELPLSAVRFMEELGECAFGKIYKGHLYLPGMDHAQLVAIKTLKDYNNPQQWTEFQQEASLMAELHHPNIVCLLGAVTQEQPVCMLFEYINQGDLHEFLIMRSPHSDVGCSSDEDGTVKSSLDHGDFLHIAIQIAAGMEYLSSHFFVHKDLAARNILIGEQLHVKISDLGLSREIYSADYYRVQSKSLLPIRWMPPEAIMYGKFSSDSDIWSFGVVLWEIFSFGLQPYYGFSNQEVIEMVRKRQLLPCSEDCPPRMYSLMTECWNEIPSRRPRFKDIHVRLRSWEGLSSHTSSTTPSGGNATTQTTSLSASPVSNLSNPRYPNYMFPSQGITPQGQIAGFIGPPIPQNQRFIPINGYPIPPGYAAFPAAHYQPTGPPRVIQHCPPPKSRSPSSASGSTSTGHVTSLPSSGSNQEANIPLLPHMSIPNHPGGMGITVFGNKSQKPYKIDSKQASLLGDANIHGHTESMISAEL
T2 sequence (Q01974 34-403): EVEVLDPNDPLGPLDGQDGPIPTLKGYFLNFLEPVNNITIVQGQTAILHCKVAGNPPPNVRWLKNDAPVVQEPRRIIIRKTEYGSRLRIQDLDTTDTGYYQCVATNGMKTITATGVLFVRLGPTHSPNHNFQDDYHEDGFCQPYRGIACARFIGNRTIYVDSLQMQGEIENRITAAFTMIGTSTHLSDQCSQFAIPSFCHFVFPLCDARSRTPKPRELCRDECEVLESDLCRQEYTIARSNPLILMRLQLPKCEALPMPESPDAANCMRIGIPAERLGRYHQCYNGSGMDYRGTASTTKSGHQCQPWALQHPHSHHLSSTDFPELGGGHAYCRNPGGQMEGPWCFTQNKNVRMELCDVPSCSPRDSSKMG

B1: Positive control antibody (PR000374) (antibody, human IgG1, kappa, V domains shown)
VH: EVQLVESGGGLVQPGRSLRLSCTASGSDINDYPITWVRQAPGQGLEWIGFINSGGSTWYASWVKGRFTISRDDSKSIAYLQMNSLKTEDTAVYYCARGYSTYYRDFNIWGQGTLVTVSS
VL: DIQMTQSPSSLSASVGDRVTINCQASQSIDSNLAWFQQKPGQPPKLLIYRASNLASGVPDRFSGSGSGTDFTLTISSLEAEDVATYYCLGGVGAVSYRTSFGGGTKVEIKR
[1]
  EC50 (read off the curve): ~3 nM
[2]
  ADCC Cytotoxicity (%), Donor 1, 1 nM: 14.4%
  ADCC Cytotoxicity (%), Donor 1, 10 nM: 25.4%
  ADCC Cytotoxicity (%), Donor 2, 1 nM: 11.4%
  ADCC Cytotoxicity (%), Donor 2, 10 nM: 18.2%
[3]
  MAX(MFI): 262000 MFI
[4]
  ELISA signal (called MFI): 0.022
[5]
  EC50 (read off the curve): ~3 nM
[6]
  EC50 (read off the curve): ~9 nM
[7]
  MAX(MFI): 3850 MFI
[8]
  Kd: 0.397 nM
  koff: 0.000173 s⁻¹
  kon: 437000 M⁻¹ s⁻¹
[9]
  MAX(MFI): 31900 MFI
[10]
  ELISA signal (called MFI): 2.48
[11]
  endocytosis EC50(nM) (a-hFc-MMAF killing, CTG luminescence): 0.243 nM
[12]
  EC50 (read off the curve): ~5 nM

B2: PR001354 (antibody, human IgG1, kappa, V domains shown)
VH: QVQLVQSGGGVVQPGRSLRLSCAASGFTFSSYGMHWVRQAPGKGLEWVAIMWYDGSDKDYADSVKGRFTISRDTSKNTLYLQMNSLRAEDTAVYYCAREQARSFDLWGRGTLVTVSS
VL: DIVMTQSPSSLSASVGDRVTITCRASQTINNWLAWYQQKPGKAPKLLIYKASSLESGVPSRFSGSGSGTEFTLTISSLQPDDFATYYCQQYNSYSPMYTFGQGTKVEIKR
notes: fully human IgG1, kappa; also called anti-ROR1 1015M2-C9 hIgG1; PR001354(WT)
[13]
  binding result: no binding
[2]
  ADCC Cytotoxicity (%), Donor 1, 1 nM: 33.5%
  ADCC Cytotoxicity (%), Donor 1, 10 nM: 34.7%
  ADCC Cytotoxicity (%), Donor 2, 1 nM: 14.4%
  ADCC Cytotoxicity (%), Donor 2, 10 nM: 15.9%
[14]
  MFI: 6700 MFI
[3]
  MAX(MFI): 262000 MFI
[4]
  ELISA signal (called MFI): 0.027
[15]
  Response: 0.609
  koff: 0.000117 s⁻¹
[7]
  MAX(MFI): 4300 MFI
[8]
  Kd: 1.13 nM
  koff: 0.000383 s⁻¹
  kon: 339000 M⁻¹ s⁻¹
[9]
  MAX(MFI): 27000 MFI
[16]
  fold lower EC50 than reference PR000374: 10 fold
[17]
  MFI: 42800 MFI
[10]
  ELISA signal (called MFI): 2.44
[11]
  endocytosis EC50(nM) (a-hFc-MMAF killing, CTG luminescence): 0.143 nM

B3: PR001357 (antibody, human IgG1, kappa, V domains shown)
VH: QVQLVQSGGGVVQPGRSLRLSCAASGFTFSSYGMHWVRQAPGKGLEWVAVIWYDGSNKDYADSVKGRFTISRDTSKNTLYLQMNSLRAEDTAVYYCAREQARSFDLWGRGTLVTVSS
VL: DIQLTQSPYSLSASVGDRVTITCRASQTINNWLAWYQQKPGKAPKLLIYKASSLESGVPSRFSGSGSGTEFTLTISSLQPDDFATYYCQQYKLYSPMYTFGQGTKVEIKR
notes: fully human IgG1, kappa
[13]
  binding result: no binding
[2]
  ADCC Cytotoxicity (%), Donor 1, 1 nM: 32.1%
  ADCC Cytotoxicity (%), Donor 1, 10 nM: 32.1%
  ADCC Cytotoxicity (%), Donor 2, 1 nM: 17.4%
  ADCC Cytotoxicity (%), Donor 2, 10 nM: 15.8%
[3]
  MAX(MFI): 262000 MFI
[4]
  ELISA signal (called MFI): 0.04
[7]
  MAX(MFI): 4550 MFI
[8]
  Kd: 0.481 nM
  koff: 0.000191 s⁻¹
  kon: 397000 M⁻¹ s⁻¹
[9]
  MAX(MFI): 24600 MFI
[16]
  fold lower EC50 than reference PR000374: 10 fold
[10]
  ELISA signal (called MFI): 2.5
[11]
  endocytosis EC50(nM) (a-hFc-MMAF killing, CTG luminescence): 0.137 nM

B4: PR001362 (antibody, V domains shown)
VH: QVQLVESGGGLVQPGGSLRLSCAASGFTFSTYGMHWVRQAPGKGLEWVAVIWYDGSDEDYADSVKGRFTISRDNSKNTLYLQMNSLRAEDTAVYYCARDQARSFDLWGRGTLVTVSS
VL: DIVMTQSPSTLSASVGDRVTITCRASQSINSWLAWYQQKPGKAPKLLIYKASSLESGVPSRFSGSGSGTEFTLTISSLQPDDFATYYCQQYKSYSPMYTFGQGTKVEIKR
notes: fully human IgG1, kappa
[13]
  binding result: no binding
[2]
  ADCC Cytotoxicity (%), Donor 1, 1 nM: 13.9%
  ADCC Cytotoxicity (%), Donor 1, 10 nM: 26.9%
  ADCC Cytotoxicity (%), Donor 2, 1 nM: 13.2%
  ADCC Cytotoxicity (%), Donor 2, 10 nM: 19.2%
[3]
  MAX(MFI): 262000 MFI
[4]
  ELISA signal (called MFI): 0.032
[5]
  EC50 (read off the curve): ~2 nM
[7]
  MAX(MFI): 3750 MFI
[8]
  Kd: 45.4 nM
  koff: 0.0136 s⁻¹
  kon: 300000 M⁻¹ s⁻¹
[9]
  MAX(MFI): 17700 MFI
[16]
  fold lower EC50 than reference PR000374: 10 fold
[10]
  ELISA signal (called MFI): 2.22
